The text below walks through data of US20240197839A1, “Recombinant Human Acid Alpha-Glucosidase and Uses Thereof” (Amicus Therapeutics, Inc., priority 2021, published 2024).

Broadly, the Kd is the free concentration of one partner at which half of the binding sites on the other are occupied at equilibrium, for simple one-to-one binding.

The nature of data set [1]: thermostability assay using SYPRO Orange. Type of data set: physicochemical. As for the experimental part:
The stability of ATB200 in acidic or neutral pH buffers was evaluated in a thermostability assay using SYPRO Orange, as the fluorescence of the dye increases when proteins denature. […] As summarized in Table 6, the addition of AT2221 increased the melting temperature (Tm) of ATB200 by nearly 10° C.

Data set [2] deals with T1, CIMPR (Homo sapiens, UniProt P11717). The data set is described as follows: CIMPR plate binding assay. As for the experimental part: In addition to having a greater percentage of rhGAA that can bind to the CIMPR, it is important to understand the quality of that interaction. LUMIZYME® and ATB200 receptor binding was determined using a CIMPR plate binding assay. Briefly, CIMPR-coated plates were used to capture GAA. Varying concentrations of rhGAA were applied to the immobilized receptor and unbound rhGAA was washed off. The amount of remaining rhGAA was determined by GAA activity. […] For LUMIZYME®, there is on average only 10% of molecules having a bis-phosphorylated N-glycan. In contrast, on average every rhGAA molecule in ATB200 has at least one bis-phosphorylated N-glycan.
N-glycan analysis via MALDI-TOF mass spectrometry confirmed that on average each ATB200 molecule contains at least one natural bis-M6P N-glycan structure.

The test system of a further data set is Gaa KO mice. The experiment in a line: single fiber analysis (LAMP1/LC3 co-immunofluorescence, white gastrocnemius). It counts as in vivo. The text has this: FIG. 17 depicts co-immunofluorescent staining of LAMP1 (green) (see for example, “B”) and LC3 (red) (see, for example, “A”) in single fibers isolated from the white gastrocnemius of Gaa KO mice treated with a vehicle, alglucosidase alfa, or ATB200. “C” depicts clearance of autophagic debris and absence of enlarged lysosome. A minimum of 30 fibers were examined from each animal.
As a result, a significant portion of muscle fibers analyzed (36-60%) from ATB200-treated mice appeared normal or near-normal.

For data set [3], the system named is normal and Pompe fibroblast cell lines. The experiment in a line: cellular uptake of rhGAA in fibroblasts (internalized GAA by 4MU-α-Glucoside hydrolysis). Type of data set: cell-based. As for the experimental part: The relative cellular uptake of ATB200 and LUMIZYME® rhGAA were compared using normal and Pompe fibroblast cell lines. Comparisons involved 5-100 nM of ATB200 according to the disclosure with 10-500 nM conventional rhGAA product LUMIZYME®. After 16-hr incubation, external rhGAA was inactivated with TRIS base and cells were washed 3-times with PBS prior to harvest. Internalized GAA measured by 4MU-α-Glucoside hydrolysis and was graphed relative to total cellular protein and the results appear in FIGS. 11A-11C.

Data set [4] concerns the target T1, CIMPR. The data set is described as follows: CIMPR affinity chromatography (bound vs unbound rhGAA by GAA activity). Type of data set: binding. The conditions noted are these: CIMPR affinity column, fraction of total enzyme by GAA activity. The text has this:
Multiple batches of the rhGAA according to the disclosure were produced in shake flasks and in perfusion bioreactors using CHO cell line GA-ATB200, the product of which is referred to as “ATB200.” Weak anion exchange (“WAX”) liquid chromatography was used to fractionate ATB200 rhGAA according to terminal phosphate and sialic acid. Elution profiles were generated by eluting the ERT with increasing amount of salt. The profiles were monitored by UV (A280 nm).
To evaluate the ability of the conventional rhGAAs in MYOZYME® and LUMIZYME® to interact with the CIMPR, the two conventional rhGAA preparations were injected onto a CIMPR affinity column (which binds rhGAA having M6P groups) and the flow through collected. The bound material was eluted with a free M6 gradient. Fractions were collected in 96-well plate and GAA activity assayed by 4MU-α-glucosidase substrate. The relative amounts of unbound (flow through) and bound (M6P eluted) rhGAA were determined based on GAA activity and reported as the fraction of total enzyme. […] Indeed, only 27% of the rhGAA in MYOZYME® and 22% of the rhGAA in LUMIZYME® contained M6P that can be productive to target it to the CIMPR on muscle cells.

Marks after values point to notes of the source that are not given here.

T1 sequence (P11717 41-2491, species assumed): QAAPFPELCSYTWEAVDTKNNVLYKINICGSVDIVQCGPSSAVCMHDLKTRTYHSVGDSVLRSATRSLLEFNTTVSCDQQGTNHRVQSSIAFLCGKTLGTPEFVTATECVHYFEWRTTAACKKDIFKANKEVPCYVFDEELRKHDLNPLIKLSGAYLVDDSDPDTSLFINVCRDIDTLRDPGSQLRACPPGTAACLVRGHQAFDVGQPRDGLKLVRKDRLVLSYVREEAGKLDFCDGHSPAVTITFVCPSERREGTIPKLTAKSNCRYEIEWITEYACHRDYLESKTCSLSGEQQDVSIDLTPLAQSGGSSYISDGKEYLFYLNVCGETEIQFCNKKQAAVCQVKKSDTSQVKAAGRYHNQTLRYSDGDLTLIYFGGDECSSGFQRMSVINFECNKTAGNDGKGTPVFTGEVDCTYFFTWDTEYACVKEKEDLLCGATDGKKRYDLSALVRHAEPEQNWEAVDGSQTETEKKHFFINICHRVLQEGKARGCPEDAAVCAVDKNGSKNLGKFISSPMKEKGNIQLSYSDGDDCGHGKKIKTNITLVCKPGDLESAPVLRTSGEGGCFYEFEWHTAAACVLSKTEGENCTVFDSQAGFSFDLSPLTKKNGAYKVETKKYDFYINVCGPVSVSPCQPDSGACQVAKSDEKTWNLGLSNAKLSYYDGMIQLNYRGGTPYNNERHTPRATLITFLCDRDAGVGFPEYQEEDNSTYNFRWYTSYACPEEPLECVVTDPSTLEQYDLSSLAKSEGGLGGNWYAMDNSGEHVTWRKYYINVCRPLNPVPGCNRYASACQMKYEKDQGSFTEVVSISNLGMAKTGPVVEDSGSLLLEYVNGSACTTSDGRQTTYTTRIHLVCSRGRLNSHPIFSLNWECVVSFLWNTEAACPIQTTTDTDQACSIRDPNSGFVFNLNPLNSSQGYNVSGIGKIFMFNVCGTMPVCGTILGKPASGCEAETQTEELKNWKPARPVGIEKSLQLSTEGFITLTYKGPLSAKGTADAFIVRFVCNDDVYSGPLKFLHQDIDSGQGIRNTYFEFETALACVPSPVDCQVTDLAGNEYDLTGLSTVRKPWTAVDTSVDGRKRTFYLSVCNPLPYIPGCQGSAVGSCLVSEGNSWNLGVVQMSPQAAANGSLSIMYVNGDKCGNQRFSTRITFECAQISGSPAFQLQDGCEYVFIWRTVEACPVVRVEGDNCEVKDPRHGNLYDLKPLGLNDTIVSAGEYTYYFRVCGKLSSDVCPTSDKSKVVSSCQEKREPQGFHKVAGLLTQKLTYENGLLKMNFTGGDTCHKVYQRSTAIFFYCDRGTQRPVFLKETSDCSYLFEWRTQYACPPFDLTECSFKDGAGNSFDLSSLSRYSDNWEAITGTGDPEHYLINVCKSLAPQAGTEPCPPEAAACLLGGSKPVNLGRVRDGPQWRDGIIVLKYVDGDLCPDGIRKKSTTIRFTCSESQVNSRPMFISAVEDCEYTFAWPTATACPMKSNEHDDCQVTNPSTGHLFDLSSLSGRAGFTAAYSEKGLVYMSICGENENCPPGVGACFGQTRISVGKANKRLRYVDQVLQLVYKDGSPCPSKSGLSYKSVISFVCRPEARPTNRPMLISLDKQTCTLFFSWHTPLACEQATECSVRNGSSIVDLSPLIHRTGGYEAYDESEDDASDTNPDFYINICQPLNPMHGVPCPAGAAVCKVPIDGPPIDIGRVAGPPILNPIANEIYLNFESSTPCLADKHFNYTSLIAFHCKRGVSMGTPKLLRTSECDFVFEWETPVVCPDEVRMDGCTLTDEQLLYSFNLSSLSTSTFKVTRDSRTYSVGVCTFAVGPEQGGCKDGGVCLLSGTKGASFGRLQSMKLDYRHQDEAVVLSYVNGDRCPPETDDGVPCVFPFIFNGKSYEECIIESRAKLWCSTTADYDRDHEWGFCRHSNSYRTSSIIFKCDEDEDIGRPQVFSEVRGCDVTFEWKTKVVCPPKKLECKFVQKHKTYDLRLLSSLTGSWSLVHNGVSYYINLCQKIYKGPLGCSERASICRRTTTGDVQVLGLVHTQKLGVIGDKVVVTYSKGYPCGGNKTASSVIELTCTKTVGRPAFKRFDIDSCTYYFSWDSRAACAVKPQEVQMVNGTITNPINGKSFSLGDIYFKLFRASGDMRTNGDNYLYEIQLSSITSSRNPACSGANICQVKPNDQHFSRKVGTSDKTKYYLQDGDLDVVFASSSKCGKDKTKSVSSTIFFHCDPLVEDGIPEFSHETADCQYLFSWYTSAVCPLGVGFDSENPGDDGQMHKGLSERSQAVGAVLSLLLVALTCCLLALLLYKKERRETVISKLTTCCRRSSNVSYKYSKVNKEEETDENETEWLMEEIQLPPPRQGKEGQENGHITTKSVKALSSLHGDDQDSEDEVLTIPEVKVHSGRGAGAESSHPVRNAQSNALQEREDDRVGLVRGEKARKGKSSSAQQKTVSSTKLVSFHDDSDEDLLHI

As to `CCCCN1C[C@H](O)[C@@H](O)[C@H](O)[C@H]1CO` [AT2221, (2R,3R,4R,5S)-1-butyl-2-(hydroxymethyl)piperidine-3,4,5-triol], the “increase of the melting temperature (Tm) of ATB200 by addition of AT2221” value in data set [1] (pH 7.4) was around 10 °C. Also, the “stabilization of ATB200 by AT2221” value in data set [1] (pH 7.4, FIG. 12) is recorded as “stabilized ATB200 at pH 7.4 in a concentration-dependent manner”.

For “ATB200: recombinant human acid α-glucosidase with a high content of N-glycans bearing mono-M6P and bis-M6P, produced from a GA-ATB200 CHO cell line”, the “binding to CIMPR compared with LUMIZYME” value in the data set with CIMPR [2] (CIMPR-coated plates, varying rhGAA concentrations (FIG. 10A)) is listed as “significantly better”. This compound also returned a Kd in the data set with CIMPR [2] (M6P receptor plate binding assays) of 2 to 4 nM. In the data set on Gaa KO mice (Gaa KO mice), the “Fibers with Autophagy Buildup” value is listed as 40-64%*. In the data set on Gaa KO mice (single fibers, compared to Vehicle- or alglucosidase alfa-treated group), the “area / extent of autophagic buildup” value is listed as “reduced to various degrees”. Further, the Tm turned out to be 67.3 °C in data set [1] (pH 5.2); 56.2 °C in data set [1] (pH 7.4); 61.6 °C in data set [1] (pH 7.4 + 10 μM AT2221); 62.9 °C in data set [1] (pH 7.4 + 30 μM AT2221); 66.0 °C in data set [1] (pH 7.4 + 100 μM AT2221). For the same compound, the “internalization into normal and Pompe fibroblast cells compared with LUMIZYME” value in data set [3] (16-hr incubation, FIGS. 11A-11B) was “internalized to a greater degree”. Further, the “concentration that saturates cellular receptors” value in data set [3] (16-hr incubation, normal and Pompe fibroblasts) was “about 20 nM”. Also, the “uptake efficiency constant (Kuptake)” value in data set [3] (extrapolated from uptake curves, FIG. 11C) is recorded as 2-3 nm.

As to “MYOZYME®: conventional rhGAA product containing alglucosidase alfa, marketed by Genzyme”, in the data set on Gaa KO mice (single fibers, FIG. 17), the “lysosomes and autophagic buildup compared to vehicle-treated mice” value is “did not show any significant difference”. The “rhGAA that did not bind to the CIMPR” value in the data set with CIMPR [4] (flow through) was 73%. In addition, in the data set with CIMPR [4], the “rhGAA that binds to the CIMPR (M6P eluted)” value amounted to 27%.
